{"source": "the DeepSol protein solubility set"}
{"assay": "soluble on expression in E. coli; label from the status in PepcDB or PDB records"}
{"sequence": "MSLRLSKTLCMAILAGSTLLAPNALMAMGGPSRVKIDWQIQGQMGMIKMNPYGLSPLTAIIMNNGYVLSDIKKNQMVKLFLNNVNSKMAKTYGGIPIFGLYPSYSKGKVSYTKTANGKSQKVIDEIYKITTPWASIEPSGRTDQRGTLFENVKVLKMDPKFSDRLYLVNNAPGKQSGKDSQSVWNNLVGGAMEWDENSNVFIIDTKGEIRWYYDNNKLMNWGNIYNRGIMISFRQNKDGALTWGFGQRYVKYDCLGREIFNRKLPAVYIDFSHAMDNMQNGHYFFNKYFASLRPDSKHVRTVCDTIIEVDENGNVVDDWRLYKILDPYRSTIIKTLDQSAVCLNIDASKVGKTLSDEELAKMDESDKFGDIAGIGRNWAHAYKGWNKEFQKYLLQPVDKNGNEWFYPVTSLTQYEPDKDSIMVYSATLEWLLILVKVSLGEPKPKIDEFNWGAKEPSVQIQFSGSGTDYQAMPFSVDQAFNPKEGHHHHHH", "soluble on expression in E. coli": "not soluble"}
{"sequence": "MSLRMQDIERKVIEWLDQHSAKAIRLLKRLIGEKSTLGSEFNAQAVVLEKLRQFHMDIDVWEPSIKQLKQHPYFKSNRSDFHESPNIVAKKTGAGGGRSLILNGHIDVVPEGSVKDWKYEPYQAVEENGKIYGRGSTDMKGGNTALLFALEALHACDVKLKGDVLFQSVVDEECGGAGTLSAIMRGYRADGALIPEPTNMKLFIKQQGSMWFRITVKGLSAHGGTRYEGVSAIEKSMHVITAIQELEKVRNARISDPLYDNIPIPVPVNIGTISGGAWPSSVADRVVIEGRCGIAPHEKPEAVKLELENWLKDLEYHDEWFKRHPVQVEWFGAQWLPNDLPDDHPLISVLQSAYQKMKQTEPIIEASPWGTDGGLLYHAGDTPVIVFGPGETKTAHQANEYIEVEAMIESAKIIALFVMDWCGLHTDGEGHHHHHH", "soluble on expression in E. coli": "soluble"}
{"sequence": "MSLRPNHAAQSLRSRTSKTIGCMFSDVANPLYARAFRALEEHFRREGYMLLLANGLNDAEREIDIIQTFQLRGMDGVILAPGNERHPGVLDAVRRLSMPAVIYDRDLAVDADAVLFDHVAGVKAAIHHLVELGHTRIALALWQVKSRPVRRRIEGYKAAFKAAGLPVPDLILQEPTPTSSAFDDVTRLLQLPDPPTAFLAQGTHTLTSTLRAIAKQGLRVPEDVSVIGIGDTDFAQTYDPPLTVLRTPTDEVAAHAVEMLLSRLAAKGDASLSPRKALIQFDLILRESCAPVAREGHHHHHH", "soluble on expression in E. coli": "soluble"}
{"sequence": "MSLRPPQTLSRGWGDDITWVQTYEEGLFYAQKSKKPLMVIHHLEDCQYSQALKKVFAQNEEIQEMAQNKFIMLNLMHETTDKNLSPDGQYVPRIMFVDPSLTVRADIAGRYSNRLYTYEPRDLPLLIENMKKALRLIQSELEGHHHHHH", "soluble on expression in E. coli": "soluble"}
{"sequence": "MSLRPRAQTAGTWPRVCIESVTPSVDNGRFPVKRTVGDRICVEADAFCDGHDRIAVAVLWRPADAKAWASAPMRALGNDRWRAEFPLERIGTYEFRVEAWRDVFATLHADLEKKRAANTVLPVDVQEAVAAVQAAQARSDGALAERLQTVLTRIGAQSEPLQQLAIVLEPDTAQAMALADDKPFRSEYPVTFRVESERRAAHFSSWYELFPRSQSGDASRHGTFDDVIKRLPHIRAMNFDVLYMPPIHPIGLNNRKGRNNSVTAVEGEPGSPYAIGATDGGHTEVHAELGGLEGFRRLIEAARAQGLEVALDFAIQCAPDHPWLKEHKDWFTWRADGSIPYAENPPKKYQDIVNVDFYASGAVPDLWNTLRDAVLFWVNEGVTLFRVDNPHTKPFPFWEWLIADVRGRRPDVVFLSEAFTRPKMMYRLAKCGFSQSYTYFTWRNHKHELRAYVEELNDGVPRECFRPHFFVNTPDINPLFLQTSGRNGHLIRAALATTLSGLWGMYQGFELCEATPLAPGKEEYLDSEKFQLRAWPERVPGDIVEEITRFNQLRRMHPELQSHLGTRFYQAHNDQVLYYGKFLDAGYLSRSRSMVLVAINLDPHAGQDADIEIPLWELGLPDHASVAVEDLWDGHRFAWHGKYQHIRLEATRPFALWRIRAGEGHHHHHH", "soluble on expression in E. coli": "soluble"}
{"sequence": "MSLRQKQKEGGTYSPQDAEIIDTKLKLDQLITVADLELKDERLTRMTVMAATEKFQIMKKELPKFLQDLSSTDADLPWNRAKNRFPNIKPYNNNRVKLIADASVPGSDYINASYISGYLCPNEFIATQGPLPGTVGDFWRMVWETRAKTLVMLTQCFEKGRIRCHQYWPEDNKPVTVFGDIVITKLMEDVQIDWTIRDLKIERHGDCMTVRQCNFTAWPEHGVPENSAPLIHFVKLVRASRAHDTTPMIVHCSAGVGRTGVFIALDHLTQHINDHDFVDIYGLVAELRSERMCMVQNLAQYIFLHQCILDLLSNKGSNQPICFVNYSEGHHHHHH", "soluble on expression in E. coli": "soluble"}
{"sequence": "MSLRSTAVLALLLCAGQVFALPVNSPMTKGDTKVMKCVLEVISDSLSKPSPMPVSPECLETLQGDERILSILRHQNLLKELQDLALQGAKERAQQQQEQQHSSFEDELSEVFENQSPDAKHRDAAAEVPSRDTMEKRKDSDKGQQDGFEATTEGPRPQAFPEPNEGHHHHHH", "soluble on expression in E. coli": "soluble"}
{"sequence": "MSLRTEFGRLQEHPIVDFKRGKEVTIYLNGKPVKAYEGETVAAALYAAGVRVFSRSFRWHRPRGFFCAIGKCSACMMEVDGIPNVRTCKVYVRDGMQVRTQSGMPDAEKDVFSILDDVIDKVFPHGSHYTKFTTSKKAREFMVKRMRKFTGFGNPPKAVFQGRAELEEIETDVLVIGGGPGGMSAAINAGKYGAKVLLVDENPFLGGQLVKQTHRFFGSAKERAGTRGIKIAGILEEELNSIENVEVRRETRVFGIYNGEAGAYQRLNDDEGKLLRIKAKKIVVATGAYERTLIFENNDLPGVYGAGGVQTLMNVYGIKPGNMGLIVGSGNVGLILTYQLMQAGVNVAAIVEAMPRIGGYFVHAAKVRRLGVPIYVRHTILKAIGRKSVEGAVIAQLDDRWQPIPGTEKEIKCDFICVAVGLSPTHELLYQAGCEMKFVPELGGIVPLRTRFNETSVKGLYVAGDVAGIEEATAAIMEGRIAGIHAAVTLGYGGEEAKKELDEAVKEIEEFRAGPFGERIVCGLEKCTLESEGHHHHHH", "soluble on expression in E. coli": "not soluble"}
{"sequence": "MSLRTILVTGASGFVGGALCRQLATLGSFAIRAASRDLGGASVAGIQAVTVADLSATTDWARALSGVDLVVHAAARVHVMKETASDSLAEFRRVNVDGTLNLARQAAAAGVRRFIFISSIKVNGESSQPGQPLRADDSPAPQDAYGVSKHEAEQGLRQLAAATGMEVVVIRPVLVYGPGVKANFHSMMRWLQRGVPLPFGAVCNRRSLVSLANLVDLVVTCIDHPRAANQTFLASDGDDVSLTQLLRALGLALGRPARLLPVPAGLLRGAVLLIGRRDLAQRLFGTLQVDIEKNRQLLGWYPPCTLEQGLNMTARSFLGARREGHHHHHH", "soluble on expression in E. coli": "soluble"}
{"sequence": "MSLRTYLPGESEEVLSEGWTLTLTPADACETPSDIPASLESLHVSVPGTVGQALEAAGKFDRLAPVALNDRDAWYRLTMISDARERAILRFDGLSTIAEIFFNGELIAASQSMFERLEVPVQMTGADELSICFRALAPRLEKPGPRARWRPQMMNTQGLRLIRTTALGYMPGWCPEIHSAGPWRPISLIKQDGVLCTLRSSLDDTGTGKVSIVLQANRDIQSARLICAGYSINLSKAEDGKLLGELIIPGVEIWWPHTHGRPALHEVVLELDGNQHRLGRTGFRQVEIDHGEDGNGFGLKVNGQPVFCRGAVWTTADIVRLPGTRPDYEPWLKKAAEAGMNMIRVGGTMAYETPEFFALCDELGIMVWQDAMLANFDYPAKDDGLRQHIVMEIEQLLESTALSPSFAIFCGGSEMYQQGAMLGLPEQIWKGTLTEEILPELVAEKRPDAAYVANSPSGGALPFFPNAGVGHYYGVGAYCRPLEDARRADLRFAAECLAFANIPEQETLDRYLPGVAVHDPRWKARTPRDRGASWDFEDVRDHYLKLLYEAEPDVLRREDGALYLDMSRAATAEVMEATFAEWRRSGSSCQGALVWTLQDLVPGAGWGIIDAAGRPKSVWHALKRAFRPVQVSLSDEGTNGLDIHILNDTGDSLNTMLELTCLREGLQPVVHAKRPLALLPRESQTIAATDLFGAFFDTTYAYRFGPPSHDVTIARLRDIATGHVIADAFHFPLGRKKALHAANLQVAISETNGHWSLEIGTDRLAQSVHITAEGYRACESWFHLGPGEARKIGLLPETATTEAPPSGEVVSLGSSRRFSEGHHHHHH", "soluble on expression in E. coli": "not soluble"}
